Measurements taken from US20150025016A1 (COMMISSARIAT A L ENERGIE ATOMIQUE ET AUX ENERGIES …, published 2015).

B1: peptide i1 (fragment of histone H3, α3 helix) (peptide)
peptide: GAMGTIMPKDIQLARRIRG
notes: The N-terminal GAMG comes from the cloning vector

Target: T1, Asf1 (1-156), conserved N-terminal domain of human Asf1 (human, UniProt Q9Y294 1-156)
T1 construct: range 1-156; The ITC legend says Asf1 1-156; Recombinant, cloned in peTM30; also called Asf1a 1-156
Assay: ITC (microcalorimetry); second printing of SEQ ID No 42 in a later block of the 6th table
Method: (§1) All calorimetry experiments were carried out in 50 mM Tris buffer pH 7.4 at 5° C., unless otherwise indicated. Peptides were introduced in the syringe at a concentration of […], and Asf1 was added to the cuvette at a concentration of 30 μM or 10 μM. Calorimety tests were also conducted at 25° C. or in 50 mM Tris buffer 150 mM NaCl pH 7.4 to obtain more detailed information on the characteristics of the interactions studied.

T1 sequence (Q9Y294 1-156 limits assumed): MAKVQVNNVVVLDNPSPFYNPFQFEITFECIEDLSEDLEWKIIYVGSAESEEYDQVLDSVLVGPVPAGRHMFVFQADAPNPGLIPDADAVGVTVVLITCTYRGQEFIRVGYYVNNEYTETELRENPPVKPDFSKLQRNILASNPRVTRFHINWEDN

For GAMGTLTPKEAELARRIRGAGGRTLNGFG [inhibitor peptide Asf1/H3-H4, peptide i4], which Kd is on record?
The Kd was 180 nM.

Target: T1, Asf1 (1-156), conserved N-terminal …
Assay: ITC (microcalorimetry)
Method: as §1

With ASTERKWAELARRIAGAGGVTLNGFG [Peptide i5_Aloop] as the binder, how does the Kd read?
The Kd was 27 nM.

How did the Kd turn out when ASTEEKWARLARRIRGAGGVTLNGFG [Peptide i5_s3] was run?
Its Kd is 20 nM.

For ASTERKWAELARRIRGAGGVTLDGFG [Peptide i5_D], which Kd is on record?
Its Kd is 9 nM.

With ASTERKWAELARRIRGAGGATLNGFG [Peptide i5_loopA] as the binder, how does the Kd read?
The Kd was 63 nM.

ASTRRKWAELARRIRGAGGVTLNGFG [peptide of SEQ ID No 33] was tested. Which Kd did it give?
Its Kd is 1330 nM.

For ASTERKWAELARRIRGAGGRTLNGFG [Peptide i5_loopR], which Kd is on record?
Its Kd is 29 nM.

LTAAEHAKRSTLTPKEAQLARRIEGAGASVTLNGFG [inhibitor peptide Asf1/H3-H4 of SEQ ID No 54] was tested. Which Kd did it give?
Its Kd is 120 nM.

How did the Kd turn out when LTAAEHAKRSTLTPKEAELARRIEGAGASVTLNGFG [inhibitor peptide Asf1/H3-H4 of SEQ ID No 55] was run?
The Kd was 880 nM.

GAMGTLTPKEAELARRIRGAGGVTLNGFGASTG [inhibitor peptide Asf1/H3-H4 of SEQ ID No 62] was tested. Which Kd did it give?
The Kd was 320 nM.

How did the Kd turn out when GRKKRRQRRRGAMGTITPKEAQLARRIRGAGGVTLNGFG [inhibitor peptide Asf1/H3-H4, peptide TAT-i42V] was run?
Its Kd is 620 nM.

How did the Kd turn out when B1 was run?
Its Kd is 8700 nM.

Which Kd does the source give for RRPRRPRRPRRPRRPGAMGTITPKEAQLARRIRGAGGVTLNGFGCA [inhibitor peptide Asf1/H3-H4, peptide RRP5-i42V-CA] here?
The Kd was 420 nM.

GAMGRVPPAVRKLGNSTERKWAELARRIRGAGGVTLNGFG [inhibitor peptide Asf1/H3-H4 of SEQ ID No 64] was tested. Which Kd did it give?
Its Kd is 80 nM.

GAMGTLTPKEAELARRIRGAGASGRTLNGFG [inhibitor peptide Asf1/H3-H4 of SEQ ID No 74] was tested. Which Kd did it give?
The Kd was 1890 nM.

Which Kd does the source give for GAMGTLTPKEAELARRIRGAGGVTLNGANFVSTG [inhibitor peptide Asf1/H3-H4 of SEQ ID No 63] here?
Its Kd is 1680 nM.

How did the Kd turn out when GAMGTITPKEAQLARRIRG [Stabilized H3 fragment of SEQ ID No 71] was run?
The Kd was 1400 nM.

GAMGTLTPKEAELARRIRGAGGRTLNGFG [inhibitor peptide Asf1/H3-H4, peptide i4] was tested. Which Kd did it give?
The Kd was 180 nM.

For GAMGTLTPKEAELARRIRGAGGVTYDGFG [inhibitor peptide Asf1/H3-H4 of SEQ ID No 61], which Kd is on record?
Its Kd is 100 nM.

How did the Kd turn out when GAMGTITPKEAQLARRIRGAGGVTLNGFG [inhibitor peptide Asf1/H3-H4, peptide i42V] was run?
Its Kd is 350 nM.

Which Kd does the source give for GAMGTLTPKEAELARRIRGAGGVTLNGFG [inhibitor peptide Asf1/H3-H4, peptide i4V] here?
Its Kd is 60 nM.

For GAMGTRTPKERRLARRIRGAGGRTLNGFG [inhibitor peptide Asf1/H3-H4 of SEQ ID No 56], which Kd is on record?
The Kd was 30 nM.

GAMGTITPKEAQLARRIRGAGGRTLNGFG [inhibitor peptide Asf1/H3-H4, peptide i4_2] was tested. Which Kd did it give?
The Kd was 220 nM.

GAMGTRTPKEARLARRIRGAGGRTLNGFG [inhibitor peptide Asf1/H3-H4 of SEQ ID No 57] was tested. Which Kd did it give?
The Kd was 260 nM.

LTAAEHAKRSTLTPKEAELARRIRGAGGVTLNGFG [inhibitor peptide Asf1/H3-H4 of SEQ ID No 53] was tested. Which Kd did it give?
The Kd was 60 nM.

RRPRRPRRPRRPRRPGAMGTITPKEAQLARRIRGAGGVTLNGFG [inhibitor peptide Asf1/H3-H4, peptide RRP5-i42V] was tested. Which Kd did it give?
Its Kd is 590 nM.

With GAMGTLTPKEAELARRIRG [Stabilized H3 fragment of SEQ ID No 72] as the binder, how does the Kd read?
The Kd was 2230 nM.

For GAMGTLTPKEAELARRIRGARTLNGFG [inhibitor peptide Asf1/H3-H4 of SEQ ID No 73], which Kd is on record?
Its Kd is 3890 nM.

With GAMGTIMPKDIQLARRIRGAGGRTLYGFG [inhibitor peptide Asf1/H3-H4, peptide i4_1] as the binder, how does the Kd read?
The Kd was 560 nM.

For GAMGTLTPKEAELARRIRGAGRTLNGFG [inhibitor peptide Asf1/H3-H4 of SEQ ID No 49], which Kd is on record?
The Kd was 950 nM.

GAMGTIMPKDIQLARRIRGAGASRTLYGFG [inhibitor peptide Asf1/H3-H4 of SEQ ID No 39] was tested. Which Kd did it give?
Its Kd is 350 nM.

With GAMGLTAAEHAKRSTLTPKEAQLARRIRGAGGVTLNGFG [inhibitor peptide Asf1/H3-H4 of SEQ ID No 52] as the binder, how does the Kd read?
The Kd was 30 nM.

Which Kd does the source give for RRPRRPRRPRRPRRPGAMGTIMPKDIQLARRIRGGCA [inhibitor peptide Asf1/H3-H4, peptide RRP5-i1] here?
Its Kd is 460 nM.

For GAMGTITPKEAQLARRIEGAGASVTLNGFG [inhibitor peptide Asf1/H3-H4 of SEQ ID No 44], which Kd is on record?
The Kd was 660 nM.

Which Kd does the source give for GAMGTLTPKEAELARRIRGAGASRTLNGFG [inhibitor peptide Asf1/H3-H4 of SEQ ID No 43] here?
Its Kd is 350 nM.

How did the Kd turn out when GAMGTLTPKEAELARRIEGAGASVTLNGFG [inhibitor peptide Asf1/H3-H4 of SEQ ID No 45] was run?
The Kd was 2000 nM.

How did the Kd turn out when GAMGTITPKEEQLRRRIEGAGASVTLNGFG [inhibitor peptide Asf1/H3-H4 of SEQ ID No 46] was run?
The Kd was 420 nM.

How did the Kd turn out when GAMGTITPKEAQLARRIRGAGASRTLNGFG [inhibitor peptide Asf1/H3-H4 of SEQ ID No 41] was run?
The Kd was 800 nM.

Which Kd does the source give for RRPRRPRRPRRPRRPASTERKWAELARRIRGAGGVTLNGFGGCA [inhibitor peptide Asf1/H3-H4, peptide RRP5-i5] here?
The Kd was 670 nM.

How did the Kd turn out when GAMGRVPPAVRKLGNASTERKWAELARRIRGAGGVTLNGFG [inhibitor peptide Asf1/H3-H4 of SEQ ID No 65] was run?
The Kd was 60 nM.

Target: T2, human protein GST-Asf1 1-156 (human, UniProt Q9Y294 1-156)
T2 construct: range 1-156; also called GST-Asf1a; GST beads linked to Asf1; not shown: GST tag
T2 sequence (Q9Y294 1-156 limits assumed): as the sequence (Q9Y294 1-156 limits assumed) above
Assay: competition on GST column: GST-Asf1 1-156 beads loaded with histones H3-H4, elution with 0, 5, 10, 50 and 100 µM peptide; released histone H3 shown by Western blot (anti-H3, anti-GST)
Method: The human protein GST-Asf1 1-156 was produced and then incubated with GST beads (glutathione S transferase, Sigma). […] After washing with 50 mM Tris buffer pH8, 150 mM NaCl, 1 mM EDTA, 1 mM DTT, 0.5% NP40, the beads were incubated with different concentrations of peptide (0 to 1 mM) dissolved in the same buffer.

Does ASTERKWAEAARRARGAGGVTLNGAG [Peptide i5mut (control peptide)] bind?
Result: no binding (tested: 100 µM)
